This note sets out measurements from US20260263521A1, “ANTI-CD200R1 ANTIBODY AND USE THEREOF” (AIMED BIO INC., priority 2023, published 2026).

Changes are numbered by the printed parent chain.

Assay [1] has as its system Dok2 phosphorylation in Jurkat-CD200R1 cells. In words: Dok2 protein phosphorylation, Jurkat-CD200R1 reporter cells (PathHunter). The assay is classed as cell-based, human. Particulars: for RLU: Jurkat-CD200R1 reporter cells, Fc capture antibody. As to the method: Jurkat-CD200R1 cells were maintained as shown in Example 17 and were then seeded in triplicate onto CulturePlate-384, a White Opaque 384-well microplate (PerkinElmer, #6007688) at a density of 8,000 cells/well (32 μl). AssayComplete Cell Plating 0 Reagent (DiscoverX, #93-0563ROA) was used for cell plating and antibody dilution. The seeded cells were incubated at 37° C. and 5% CO2 for 30 minutes.
During the reaction, an Fc capture antibody, anti-human IgG (Fc-specific) antibody produced in goat (Sigma Aldrich, #12136, 2.3 mg/ml), was diluted in AssayComplete media and incubated at 37° C., 5% CO2 for 30 minutes. After incubation of both the plate containing the cells and the Fc capture antibody, the cells were treated with the Fc capture antibody at a concentration of 50 μg/ml per well. The reaction was incubated for 3 hours at 37° C., 5% CO2. After cross-reactivity with the Fc capture antibody, the cells were treated with a total of three antibodies, as shown in Example 17. The cells were diluted two-fold from a maximum concentration of 50 nM to 25 nM, 12.5 nM, 6.25 nM, 3.12 nM, 1.56 nM, 0.78 nM, 0.39 nM, 0.20 nM, 0.098 nM, and 0.049 nM. After treatment, the result was reacted at room temperature for an additional 2 hours.
The PathHunter Detection kit (DiscoverX, #93-0001) was used to confirm the response of the treated antibodies to the Jurkat-CD200R1 reporter cell line. Final data were analyzed using an Infinite M200 Pro Plate reader (Tecan) to measure the luminescence from phosphorylated Dok2. […] luminescence unit (RLU) is an arbitrary unit representing luminescence, calculated by converting the signal detected by a cross-linked Fc capture antibody.

For assay [2], the system named is TNF-α in U937-CD200R1 cells. Briefly: TNF-α suppression in LPS-treated U937-CD200R1 cells (AlphaLISA). The assay is classed as cell-based, human. The conditions noted are these: for TNF-α: LPS-treated U937-CD200R1 cells, 24 h. As to the method:
To determine the binding ability of the candidates to U937-CD200R1-overexpressing cell lines and verify the efficacy thereof, the anti-inflammatory effect of anti-CD200R1 antibodies was analyzed. First, 5×10^6 U937-CD200R1 cells were added to 12 ml of medium, treated with 30 ng/ml of Phorbol 12-myristate 13-acetate (Sigma Aldrich, #P1585), and reacted at 37° C. in 5% CO2 for 24 hours. After reaction, the medium was replaced with RPMI 1640 medium containing only 10% heat-inactivated FBS, and 5×10^6 cells were maintained at 37° C. in 5% CO2 for 24 hours.
Cells were seeded on duplicate onto 96-well round-bottom plates (SPL, #34296) at 1×10^5 cells/50 μl/well. P001009 WT, P001009v1, and the previously published CD200R antibody LY3454738 (US 2020/0087395, I-4P, Eli Lilly) as a positive control were used in this experiment. The drug was serially diluted 10-fold from a maximum concentration of 100 nM and treated to the cells at concentrations of 10 nM, 1 nM, […], respectively. Additional cells were treated with 100 nM of hIgG4 kappa isotype control (Crownvivo, #C0004) as a negative control. Untreated cells were seeded in the same amount of medium (RPMI 1640 containing 10% heat-inactivated FBS) and incubated at 37° C., 5% CO2 for 1 hour. To induce an inflammatory response in drug-treated cells, each well was treated with 10 μl of lipopolysaccharide from Salmonella typhosa (Sigma Aldrich, #L7895) at a concentration of 1 μg/ml. One well was left untreated to assess the induction of inflammatory cytokines. After thorough mixing, the cells were incubated at 37° C. and 5% CO2 for 24 hours.
After centrifugation at 1100 g for 2 minutes, images of the pellets before and after LPS treatment were captured using a microscope (Carl Zeiss, AXIO VERT.A1). After LPS treatment, the pellet appeared as scattered debris (FIG. 18B) rather than uniform spheroids (FIG. 18A). This was observed under a microscope. The supernatant was collected and analyzed for inflammatory cytokines such as TNF-α and IL-6 using an EnVision® multimode plate reader (PerkinElmer). A bead-based cytokine assay was performed using the AlphaLISA immunoassay on the EnVision® instrument. TNF-α(human) AlphaLISA Detection Kit, 500 assay points (PerkinElmer, #AL208C) was used for TNF-α, and the IL-6 (human) AlphaLISA Detection Kit, 500 assay points (PerkinElmer, #AL223C) was used for IL-6. Cytokine levels were determined depending on the concentration of each antibody.
In general terms: Bead proximity is the source of the signal in Alpha formats.

The next assay concerns the target T1, human CD200R1 (Homo sapiens, UniProt Q8TD46).
T1 sequence (Q8TD46 25-348): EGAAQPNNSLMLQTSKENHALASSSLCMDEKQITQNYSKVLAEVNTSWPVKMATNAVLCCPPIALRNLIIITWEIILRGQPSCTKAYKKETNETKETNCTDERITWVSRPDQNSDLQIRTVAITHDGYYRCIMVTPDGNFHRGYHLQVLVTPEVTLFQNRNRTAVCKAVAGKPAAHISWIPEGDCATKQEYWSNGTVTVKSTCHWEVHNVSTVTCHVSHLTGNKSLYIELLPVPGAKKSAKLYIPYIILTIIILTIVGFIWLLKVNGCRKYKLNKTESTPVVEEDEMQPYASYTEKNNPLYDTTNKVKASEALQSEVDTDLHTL
In words: SPR binding kinetics, human CD200R1. The conditions noted are these: hCD200R1-his captured on anti-His CM5 chip, 1:1 Langmuir fit. The protocol: The CD200R1-specific binding ability of the antibodies (P001009 wt, P001009 v1, P001009 v2, P001009 v3, P001009 v4) selected in Example 14 was analyzed using surface plasma resonance (SPR). For the experiment, 30 μg/mL of an anti-histidine antibody was conjugated to a CM5 biacore chip via an amine bond while allowing to flow at 10 μl/min (10,000 RU). Then, 0.25 μg/mL of human or cynomolgus CD200R1 with dual His-tags was captured onto the completed chip for 60 seconds, and the binding ability of each antibody was analyzed. All experiments were performed by association of antibodies for 120 seconds and dissociation of antibodies for 600 seconds. The resulting graphs were fitted using a 1:1 Langmuir binding kinetic model (FIG. 16), and the kinetics of each antibody were calculated.
(In general: Surface plasmon resonance follows binding to a sensor surface in real time, without labels.)

B1: P001009: phage display anti-CD200R1 clone; VH SEQ ID NO: 79, VL SEQ ID NO: 94 (antibody, V domains shown)
VH: EVQLLESGGGLVQPGGSLRLSCAASGFTFSSYDMSWVRQAPGKGLEWVSWISHGGGSIYYADSVKGRFTISRDNSKNTLYLQMNSLRAEDTAVYYCARDAPAYSAPLFDYWGQGTLVTVSS
VL: QSVLTQPPSASGTPGQRVTISCSGSSSNIGNNAVNWYQQLPGTAPKLLIYYDSNRPSGVPDRFSGSKSGTSASLAISGLRSEDEADYYCAAWDDSLSGYVFGGGTKLTVL
On to B1, for which the “luminescence due to phosphoDok2” value in assay [1] is on record as “exhibited luminescence due to phosphoDok2”. For the same molecule, the RLU in assay [1] (antibody dose 0.05 nM) was determined as 10432 ± 2166 a.u; in assay [1] (antibody dose 0.10 nM), 10359 ± 1227 a.u; in assay [1] (antibody dose 0.20 nM), 15184 ± 2826 a.u; in assay [1] (antibody dose 0.39 nM) it was 10861 ± 917 a.u; in assay [1] (antibody dose 0.78 nM), 25264 ± 1484 a.u; in assay [1] (antibody dose 1.56 nM), 33140 ± 5780 a.u. Besides, the RLU is listed as 41203 ± 4810 a.u in assay [1] (antibody dose 3.13 nM); 56115 ± 6866 a.u in assay [1] (antibody dose 6.25 nM); 57733 ± 6385 a.u in assay [1] (antibody dose 12.5 nM); 50858 ± 8029 a.u in assay [1] (antibody dose 25 nM); 37120 ± 14299 a.u in assay [1] (antibody dose 50 nM). Also, the TNF-α amounted to 619.6 ± 12.3 pg/mL in assay [2] (log [Ab] (M) −7); 1259.1 ± 29.9 pg/mL in assay [2] (log [Ab] (M) −8); 2035.8 ± 108.9 pg/mL in assay [2] (log [Ab] (M) −9); 4148.8 ± 208.7 pg/mL in assay [2] (log [Ab] (M) −10); 5038.4 ± 7.7 pg/mL in assay [2] (log [Ab] (M) −11); 5128.6 ± 667.6 pg/mL in assay [2] (log [Ab] (M) −12). The Ka with human CD200R1 is 2.81e+06 M⁻¹ s⁻¹.

B2: P001009v1: P001009 variant, LC S52 and LC S94 substituted with K and R; VH SEQ ID NO: 79 (antibody, V domains shown)
VH: B1 VH
VL: B1 VL with S53K, S95R
B2: in assay [1], the “luminescence due to phosphoDok2” value was “exhibited luminescence due to phosphoDok2”. Besides, the RLU was determined as 9521 ± 1128 a.u in assay [1] (antibody dose 0.05 nM); 10677 ± 2258 a.u in assay [1] (antibody dose 0.10 nM); 17866 ± 1925 a.u in assay [1] (antibody dose 0.20 nM); 11340 ± 509 a.u in assay [1] (antibody dose 0.39 nM); 28644 ± 4755 a.u in assay [1] (antibody dose 0.78 nM); 32863 ± 4207 a.u in assay [1] (antibody dose 1.56 nM). The RLU is 29729 ± 3825 a.u in assay [1] (antibody dose 3.13 nM); 48879 ± 1315 a.u in assay [1] (antibody dose 6.25 nM); 45830 ± 6990 a.u in assay [1] (antibody dose 12.5 nM); 53185 ± 13281 a.u in assay [1] (antibody dose 25 nM); 32676 ± 5379 a.u in assay [1] (antibody dose 50 nM). The TNF-α in assay [2] (log [Ab] (M) −7) is 146.7 ± 23.8 pg/mL; in assay [2] (log [Ab] (M) −8) it was 609.5 ± 25.6 pg/mL; in assay [2] (log [Ab] (M) −9), 1039.8 ± 54.7 pg/mL; in assay [2] (log [Ab] (M) −10), 3352.5 ± 189.8 pg/mL; in assay [2] (log [Ab] (M) −11), 4753.2 ± 96.1 pg/mL; in assay [2] (log [Ab] (M) −12) it was 4082.1 ± 964.6 pg/mL. Moreover, the “TNF-α level” value in assay [2] (low nanomolar (nM) drug concentrations) is on record as “maintained low inflammatory cytokine levels”. Also, the Ka in the assay with human CD200R1 was found to be 4.77e+06 M⁻¹ s⁻¹.
